Measurements as given in article PMC4805248.

Experiments:
[1] = target: PgMntR C108E variant (Porphyromonas gingivalis W50); test: AUC; sedimentation velocity; 10 or 60 uM protein in TBS (50 mM Tris-Cl, 150 mM NaCl, pH 7.5), 20 C, 40,000 rpm; without divalent metal, also with Mn2+ and with 2 mM TCEP; c(s) fit in SEDFIT
[2] = target: PgMntR ΔFeoA2 (PgMntR without the final C-terminal FeoA domain) (Porphyromonas gingivalis W50); test: as above
[3] = target: PgMntR 4Ala variant (D19A/C108A/E111A/H112A) (Porphyromonas gingivalis W50); test: as above
[4] = target: PgMntR D19M variant (Porphyromonas gingivalis W50); test: as above
[5] = target: T1, PgMntR (Porphyromonas gingivalis W50 (W83 locus PG1044)) (UniProt Q7MVL0); test: EMSA; conditions: EMSA: 1 nM biotinylated DNA, 700-1000 nM protein, 90 mM Bis-Tris borate pH 6.8 (1 mM TCEP, 5 mM DTT) or 10 mM Tris-Cl pH 7.5 or Tris-acetate pH 6.8, 50 mM KCl …
T1 sequence: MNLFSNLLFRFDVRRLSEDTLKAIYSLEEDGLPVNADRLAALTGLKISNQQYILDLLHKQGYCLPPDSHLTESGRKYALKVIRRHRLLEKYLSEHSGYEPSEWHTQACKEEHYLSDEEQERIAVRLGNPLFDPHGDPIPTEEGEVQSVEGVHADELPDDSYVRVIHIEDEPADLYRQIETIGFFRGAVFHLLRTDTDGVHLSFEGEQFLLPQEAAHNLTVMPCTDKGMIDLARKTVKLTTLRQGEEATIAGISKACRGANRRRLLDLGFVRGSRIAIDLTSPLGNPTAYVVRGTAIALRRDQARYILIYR

[6] = target: PgMntR (Porphyromonas gingivalis manganese transport regulator orthologue, PG1044), recombinant wild type (Porphyromonas gingivalis W50); test: AUC; sedimentation velocity; 10 or 60 uM protein in TBS (50 mM Tris-Cl, 150 mM NaCl, pH 7.5), 20 C, 40,000 rpm; without divalent metal, also with Mn2+ and with 2 mM TCEP; c(s) fit in SEDFIT

Substance: PgMntR C108E variant (natural protein)
- stoichiometry N [1]: 2

Substance: PgMntR ΔFeoA2 (PgMntR without the final C-terminal FeoA domain) (domain or fragment)
- stoichiometry N [2]: 2

Substance: PgMntR 4Ala variant (D19A/C108A/E111A/H112A) (natural protein)
- stoichiometry N [3]: 2

Substance: PgMntR D19M variant (natural protein)
- stoichiometry N [4]: 2

Substance: GATAGCGCAAAAATACTAACTAAACCAATGAATAAACGAGAAATACAATTTATTATTAAAGAGACTGTTGCACAATAACCCTCTCCCCCTCTCATATTGATCAAGACAGACACAAGCATTGATTTGACGAAGAAAGGAGAGCTTCATGCAATCTCTCTGCAAACCTCAAGTAATCTGAAAAACACTTAAGAATCAGCTCTGCGGCAAAAGACTTCAATGAAAGTCCTATAAAATAGTTGCAAACAGCTGATAGTTAGCGCATTGATGGGAGC (double strand) [FB1p (feoB1 promoter)]
- binding [5]: no binding

Substance: PgMntR (Porphyromonas gingivalis manganese transport regulator orthologue, PG1044), recombinant wild type (natural protein)
- stoichiometry N [6]: 2
